Laboratory results as given in paper PMC5540134 (Biochemistry, 2017).

Target: T1, WT-UreE dimer (Helicobacter pylori urease accessory protein UreE) (Helicobacter pylori, UniProt Q09064 1-170)
T1 sequence: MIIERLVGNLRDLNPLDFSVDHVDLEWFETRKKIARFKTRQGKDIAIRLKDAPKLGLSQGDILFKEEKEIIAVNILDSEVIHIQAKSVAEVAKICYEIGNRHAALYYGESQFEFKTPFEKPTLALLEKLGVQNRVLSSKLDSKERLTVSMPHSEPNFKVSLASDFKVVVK
Test: ITC

Binder	Kd	dH	stoichiometry N
L2*-HypA (Met1_His2insLeu variant of Helicobacter pylori HypA) (natural protein) MLHEYSVVSSLIALCEEHAKKNQAHKIERVVVGIGERSAMDKSLFVSAFETFREESLVCKDAILDIVDEKVELECKDCSHVFKPNALDYGVCEKCHSKNVIITQGNEMRLLSLEMLAE	690 ± 110 nM	-3.86 ± 0.06 kcal/mol	1.6 ± 0.2 HypA per UreE dimer
WT-HypA (Helicobacter pylori hydrogenase maturation protein HypA, unmodified N-terminus) (natural protein) MHEYSVVSSLIALCEEHAKKNQAHKIERVVVGIGERSAMDKSLFVSAFETFREESLVCKDAILDIVDEKVELECKDCSHVFKPNALDYGVCEKCHSKNVIITQGNEMRLLSLEMLAE	960 ± 90 nM	-6.27 ± 0.06 kcal/mol	1.5 ± 0.1 HypA per UreE dimer
